# Assay results taken from paper PMC7641761.
# Legend:
# [1] = target: Ku70/Ku80 heterodimer FL (baculovirus) (human) (UniProt P12956+P13010); test: MST; settings: 1 mM DTT, 24 C, 40 nM FAM-RNA, EMSA: 25 mM Hepes-KOH pH 7.5, 50 mM NaCl, 1 mM EDTA, 10% glycerol, 0.1 uM BSA …
# [2] = target: Ku5D T305D;S306D;T307D;S314D;T316D (human) (UniProt P12956+P13010); test: MST; settings: MST: 50 mM Tris pH 8.0, 50 mM NaCl, 1 mM DTT, 24 C, 40 nM FAM-RNA, EMSA: 25 mM Hepes-KOH pH 7.5, 50 mM NaCl, 1 mM EDTA, 10% glycerol, 0.1 uM BSA …
# Chain of Ku5D T305D;S306D;T307D;S314D;T316D (human) (P12956 whole entry T305D/S306D/T307D/S314D/T316D, chain 1 of 2): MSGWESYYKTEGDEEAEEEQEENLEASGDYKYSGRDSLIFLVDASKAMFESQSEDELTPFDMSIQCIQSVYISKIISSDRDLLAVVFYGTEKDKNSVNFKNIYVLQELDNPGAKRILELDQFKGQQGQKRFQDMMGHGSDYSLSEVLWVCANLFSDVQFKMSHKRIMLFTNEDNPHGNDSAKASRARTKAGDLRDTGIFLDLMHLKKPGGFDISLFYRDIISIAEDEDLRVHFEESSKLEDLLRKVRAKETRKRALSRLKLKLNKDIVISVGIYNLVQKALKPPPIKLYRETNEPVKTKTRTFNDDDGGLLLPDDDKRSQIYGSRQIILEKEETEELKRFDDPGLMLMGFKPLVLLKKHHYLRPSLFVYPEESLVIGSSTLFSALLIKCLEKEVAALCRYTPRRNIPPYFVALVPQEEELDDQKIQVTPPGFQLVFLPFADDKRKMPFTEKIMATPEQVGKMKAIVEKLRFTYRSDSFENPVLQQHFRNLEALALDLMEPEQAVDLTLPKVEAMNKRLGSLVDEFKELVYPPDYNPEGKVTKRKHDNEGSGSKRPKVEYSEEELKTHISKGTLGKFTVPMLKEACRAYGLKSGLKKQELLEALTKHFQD
# Chain of Ku5D T305D;S306D;T307D;S314D;T316D (human) (P13010 1-718, chain 2 of 2): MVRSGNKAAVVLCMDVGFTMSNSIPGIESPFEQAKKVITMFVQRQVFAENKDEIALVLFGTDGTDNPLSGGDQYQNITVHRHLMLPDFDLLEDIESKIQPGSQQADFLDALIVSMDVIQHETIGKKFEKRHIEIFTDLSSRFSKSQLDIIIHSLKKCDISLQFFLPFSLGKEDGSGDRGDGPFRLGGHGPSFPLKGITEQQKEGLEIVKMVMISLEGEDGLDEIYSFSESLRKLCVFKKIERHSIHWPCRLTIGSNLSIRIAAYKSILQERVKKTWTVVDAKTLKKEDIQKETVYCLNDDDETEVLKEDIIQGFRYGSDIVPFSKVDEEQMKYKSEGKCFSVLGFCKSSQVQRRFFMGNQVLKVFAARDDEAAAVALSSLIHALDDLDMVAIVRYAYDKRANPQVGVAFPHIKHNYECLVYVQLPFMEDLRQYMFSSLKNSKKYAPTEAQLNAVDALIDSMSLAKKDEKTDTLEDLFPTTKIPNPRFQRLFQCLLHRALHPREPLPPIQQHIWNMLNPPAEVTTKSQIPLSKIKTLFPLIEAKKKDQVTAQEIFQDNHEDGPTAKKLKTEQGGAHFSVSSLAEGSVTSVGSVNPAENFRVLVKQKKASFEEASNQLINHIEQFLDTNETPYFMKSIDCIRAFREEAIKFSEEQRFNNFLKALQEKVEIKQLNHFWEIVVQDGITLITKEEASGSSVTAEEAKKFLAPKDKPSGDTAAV
# [3] = MST: 50 mM Tris pH 8.0, 50 mM NaCl
# Chain of Ku70/Ku80 heterodimer FL (baculovirus) (human) (P12956 whole entry, chain 1 of 2): as the sequence (P12956 whole entry T305D/S306D/T307D/S314D/T316D, chain 1 of 2) above, with D305T, D306S, D307T, D314S, D316T counted along it
# Chain of Ku70/Ku80 heterodimer FL (baculovirus) (human) (P13010 1-718, chain 2 of 2): as the sequence (P13010 1-718, chain 2 of 2) above
Substance,"Kd ([1]; Hill 1.0, MST: 50 mM Tris pH 8.0, 50 mM NaCl) [nM]",binding signal (fold better than WT) [2],"Kd [1, 3] [nM]"
FL LINP1,740,2,
LINP1 SL2 + SL3,,,700
polyU,,,1400
polyC,,,1290
polyA,,,4800
